Changes are numbered by the printed parent chain.
T1: FcγRIIa(H) extracellular domain with C-terminal His tag (human, UniProt P12318 34-217)
T1 construct: extracellular domain; H131 allotype; also called 2aH; CD32
T1 sequence: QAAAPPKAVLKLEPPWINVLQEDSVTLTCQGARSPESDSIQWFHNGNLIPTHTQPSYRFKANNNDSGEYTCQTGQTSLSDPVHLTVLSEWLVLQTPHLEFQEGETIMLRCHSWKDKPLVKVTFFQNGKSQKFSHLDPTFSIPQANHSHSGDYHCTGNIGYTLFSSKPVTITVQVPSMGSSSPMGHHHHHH

T2: FcγRIIb extracellular domain with C-terminal His tag (human, UniProt P31994 43-217)
T2 construct: extracellular domain; also called 2b; CD32
T2 sequence: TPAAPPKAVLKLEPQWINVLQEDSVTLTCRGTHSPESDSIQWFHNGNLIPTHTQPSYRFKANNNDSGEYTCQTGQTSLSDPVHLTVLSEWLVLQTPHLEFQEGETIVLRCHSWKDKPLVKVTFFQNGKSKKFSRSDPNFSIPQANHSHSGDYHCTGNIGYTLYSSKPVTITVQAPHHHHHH

T3: FcγRIIa(R) extracellular domain with C-terminal His tag (human, UniProt P12318 34-217)
T3 construct: extracellular domain; R131 allotype; also called 2aR; CD32
T3 sequence: T1 sequence with H134R

B1: GpH7-A5/GpH7-B3 variant I336_14T/GpL16-k0 (antibody, human IgG1, kappa)
heavy 1: not shown
heavy 2: not shown
light: DIVMTQSPLSLPVTPGEPASISCQASESLVHSNRNTYLHWYLQKPGQSPQLLIYKVSNRFSGVPDRFSGSGSGTDFTLKISRVEAEDVGVYYCSQNTHVPPTFGQGTKVEIERTVAAPSVFIFPPSDEQLKSGTASVVCLLNNFYPREAKVQWKVDNALQSGNSQESVTEQDSKDSTYSLSSTLTLSKADYEKHKVYACEVTHQGLSSPVTKSFNRGEC
notes: heterodimerized IgG1 (He Ab), mutation in one H chain only; also called He Ab
B2: GpH7-A5/GpH7-B3 variant K334_05P/GpL16-k0 (antibody, human IgG1, kappa)
heavy 1: not shown
heavy 2: not shown
light: B1 light
notes: as for B1
B3: GpH7-A5/GpH7-B3 variant K334_10E/GpL16-k0 (antibody, human IgG1, kappa)
heavy 1: not shown
heavy 2: not shown
light: B1 light
notes: as for B1
B4: GpH7-A5/GpH7-B3 variant K334_15Y/GpL16-k0 (antibody, human IgG1, kappa)
heavy 1: not shown
heavy 2: not shown
light: B1 light
notes: as for B1
B5: GpH7-A5/GpH7-B3 variant K334_13S/GpL16-k0 (antibody, human IgG1, kappa)
heavy 1: not shown
heavy 2: not shown
light: B1 light
notes: as for B1
B6: GpH7-A5/GpH7-B3 variant K334_20W/GpL16-k0 (antibody, human IgG1, kappa)
heavy 1: not shown
heavy 2: not shown
light: B1 light
notes: as for B1
B7: GpH7-A5/GpH7-B3 variant K334_06M/GpL16-k0 (antibody, human IgG1, kappa)
heavy 1: not shown
heavy 2: not shown
light: B1 light
notes: as for B1
B8: GpH7-A5/GpH7-B3 variant I336_15Y/GpL16-k0 (antibody, human IgG1, kappa)
heavy 1: not shown
heavy 2: not shown
light: B1 light
notes: as for B1
B9: GpH7-A5/GpH7-B3 variant K334_18N/GpL16-k0 (antibody, human IgG1, kappa)
heavy 1: not shown
heavy 2: not shown
light: B1 light
notes: as for B1
B10: GpH7-A5/GpH7-B3 variant K334_19Q/GpL16-k0 (antibody, human IgG1, kappa)
heavy 1: not shown
heavy 2: not shown
light: B1 light
notes: as for B1
B11: GpH7-A5/GpH7-B3 variant K334_16H/GpL16-k0 (antibody, human IgG1, kappa)
heavy 1: not shown
heavy 2: not shown
light: B1 light
notes: as for B1
B12: GpH7-A5/GpH7-B3 variant K334_14T/GpL16-k0 (antibody, human IgG1, kappa)
heavy 1: not shown
heavy 2: not shown
light: B1 light
notes: as for B1
B13: GpH7-A5/GpH7-B3 variant K334_07I/GpL16-k0 (antibody, human IgG1, kappa)
heavy 1: not shown
heavy 2: not shown
light: B1 light
notes: as for B1
B14: GpH7-A5/GpH7-B3 variant I336_16H/GpL16-k0 (antibody, human IgG1, kappa)
heavy 1: not shown
heavy 2: not shown
light: B1 light
notes: as for B1
B15: GpH7-A5/GpH7-B3 variant K334_03V/GpL16-k0 (antibody, human IgG1, kappa)
heavy 1: not shown
heavy 2: not shown
light: B1 light
notes: as for B1
B16: GpH7-A5/GpH7-B3 variant K334_02A/GpL16-k0 (antibody, human IgG1, kappa)
heavy 1: not shown
heavy 2: not shown
light: B1 light
notes: as for B1
B17: GpH7-A5/GpH7-B3 variant K334_01G/GpL16-k0 (antibody, human IgG1, kappa)
heavy 1: not shown
heavy 2: not shown
light: B1 light
notes: as for B1
B18: GpH7-A5/GpH7-B3 variant K334_09D/GpL16-k0 (antibody, human IgG1, kappa)
heavy 1: not shown
heavy 2: not shown
light: B1 light
notes: as for B1
B19: GpH7-A5/GpH7-B3 variant K334_12R/GpL16-k0 (antibody, human IgG1, kappa)
heavy 1: not shown
heavy 2: not shown
light: B1 light
notes: as for B1
B20: GpH7-A5/GpH7-B3 variant I336_18N/GpL16-k0 (antibody, human IgG1, kappa)
heavy 1: not shown
heavy 2: not shown
light: B1 light
notes: as for B1
B21: GpH7-A5/GpH7-B3 variant P331_02A/GpL16-k0 (antibody, human IgG1, kappa)
heavy 1: not shown
heavy 2: not shown
light: B1 light
notes: as for B1
B22: GpH7-A5/GpH7-B3 variant I336_19Q/GpL16-k0 (antibody, human IgG1, kappa)
heavy 1: not shown
heavy 2: not shown
light: B1 light
notes: as for B1
B23: GpH7-A5/GpH7-B3 variant K334_04F/GpL16-k0 (antibody, human IgG1, kappa)
heavy 1: not shown
heavy 2: not shown
light: B1 light
notes: as for B1
B24: GpH7-A5/GpH7-B3 variant K334_08L/GpL16-k0 (antibody, human IgG1, kappa)
heavy 1: not shown
heavy 2: not shown
light: B1 light
notes: as for B1

Biological target: T1, FcγRIIa(H) extracellular domain with …
Test: SPR; % of GpH7-A5/GpH7-B3/GpL16-k0

Row | Binder | He/Con 2aH [%]
1 | B1 | 103
2 | B2 | 112
3 | B3 | 113
4 | B4 | 122
5 | B5 | 116
6 | B6 | 112
7 | B7 | 121
8 | B8 | 84.6
9 | B9 | 114
10 | B10 | 116
11 | B11 | 119
12 | B12 | 118
13 | B13 | 126
14 | B14 | 97.4
15 | B15 | 126
16 | B16 | 111
17 | B17 | 92.5
18 | B18 | 95.6
19 | B19 | 114
20 | B20 | 107
21 | B21 | 93.9
22 | B22 | 76.4
23 | B23 | 121
24 | B24 | 120

Biological target: T2, FcγRIIb extracellular domain with …
Test: SPR; % of GpH7-A5/GpH7-B3/GpL16-k0

Row | Binder | He/Con 2b [%]
25 | B1 | 97.8
26 | B2 | 136
27 | B3 | 148
28 | B4 | 141
29 | B5 | 143
30 | B6 | 134
31 | B7 | 141
32 | B8 | 74.5
33 | B9 | 148
34 | B10 | 141
35 | B11 | 146
36 | B12 | 149
37 | B13 | 154
38 | B14 | 93.8
39 | B15 | 161
40 | B16 | 139
41 | B17 | 119
42 | B18 | 122
43 | B19 | 144
44 | B20 | 107
45 | B21 | 110
46 | B22 | 63.6
47 | B23 | 143
48 | B24 | 137

Biological target: T4, FcγRIIIa extracellular domain with C-terminal His tag (human, UniProt P08637 17-208)
T4 construct: extracellular domain; also called 3a; CD16
T4 sequence (P08637 other isoform, or with tags, fused parts or gaps): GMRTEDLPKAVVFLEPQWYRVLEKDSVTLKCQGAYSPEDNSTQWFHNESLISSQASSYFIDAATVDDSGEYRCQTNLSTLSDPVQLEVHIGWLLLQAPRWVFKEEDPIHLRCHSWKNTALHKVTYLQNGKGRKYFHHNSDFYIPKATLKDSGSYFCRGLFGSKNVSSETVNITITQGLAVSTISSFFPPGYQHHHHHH
Test: SPR; % of GpH7-A5/GpH7-B3/GpL16-k0

Row | Binder | He/Con 3a [%]
49 | B1 | 103
50 | B2 | 138
51 | B3 | 186
52 | B4 | 145
53 | B5 | 150
54 | B6 | 132
55 | B7 | 149
56 | B8 | 83.4
57 | B9 | 140
58 | B10 | 140
59 | B11 | 138
60 | B12 | 146
61 | B13 | 156
62 | B14 | 92.8
63 | B15 | 154
64 | B16 | 152
65 | B17 | 125
66 | B18 | 164
67 | B19 | 93.5
68 | B20 | 99.4
69 | B21 | 82.5
70 | B22 | 88.4
71 | B23 | 152
72 | B24 | 148

Biological target: T3, FcγRIIa(R) extracellular domain with …
Test: SPR; % of GpH7-A5/GpH7-B3/GpL16-k0

Row | Binder | He/Con 2aR [%]
73 | B1 | 102
74 | B2 | 141
75 | B3 | 144
76 | B4 | 148
77 | B5 | 149
78 | B6 | 143
79 | B7 | 144
80 | B8 | 83.1
81 | B9 | 152
82 | B10 | 149
83 | B11 | 149
84 | B12 | 153
85 | B13 | 155
86 | B14 | 99.1
87 | B15 | 160
88 | B16 | 143
89 | B17 | 127
90 | B18 | 127
91 | B19 | 151
92 | B20 | 110
93 | B21 | 105
94 | B22 | 70.9
95 | B23 | 150
96 | B24 | 145

Biological target: T5, FcγRIa extracellular domain with C-terminal His tag (human, UniProt P12314 16-292)
T5 construct: extracellular domain; also called 1a; CD64
T5 sequence (P12314 other isoform, or with tags, fused parts or gaps): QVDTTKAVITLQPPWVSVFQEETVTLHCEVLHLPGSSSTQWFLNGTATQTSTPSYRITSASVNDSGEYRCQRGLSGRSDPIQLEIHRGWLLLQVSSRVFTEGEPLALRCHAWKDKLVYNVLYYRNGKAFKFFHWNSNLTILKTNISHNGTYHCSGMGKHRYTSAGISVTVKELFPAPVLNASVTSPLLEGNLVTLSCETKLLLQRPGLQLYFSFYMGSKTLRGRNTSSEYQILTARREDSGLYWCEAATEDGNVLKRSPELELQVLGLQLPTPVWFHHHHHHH
Test: SPR; % of GpH7-A5/GpH7-B3/GpL16-k0

Row | Binder | He/Con 1a [%]
97 | B1 | 108
98 | B2 | 98.7
99 | B3 | 104
100 | B4 | 99.1
101 | B5 | 99.3
102 | B6 | 99.9
103 | B7 | 99
104 | B8 | 106
105 | B9 | 99
106 | B10 | 100
107 | B11 | 99.3
108 | B12 | 99.2
109 | B13 | 98.7
110 | B14 | 104
111 | B15 | 99.1
112 | B16 | 100
113 | B17 | 98
114 | B18 | 101
115 | B19 | 98.2
116 | B20 | 111
117 | B21 | 105
118 | B22 | 107
119 | B23 | 99.6
120 | B24 | 99.1

Source: patent publication US20260167699A1 (Chugai, published 2026)
